In assay [1] the target is human neonatal Fc receptor FcRn/β2m, soluble recombinant (human) (UniProt P55899). As to the kind of experiment: flow cytometry, labelled FcRn on CHO-displayed HSA, pH 5.5. On the technique in general: Flow cytometry measures light scatter and fluorescence of single cells or particles in a stream.
The target is the same in assay [2]. As to the kind of experiment: flow cytometry, labelled FcRn on CHO-displayed HSA, pH 7.4.

Sequence of human neonatal Fc receptor FcRn/β2m, soluble recombinant (human) (P55899 24-297 limits assumed, chain 1 of 2): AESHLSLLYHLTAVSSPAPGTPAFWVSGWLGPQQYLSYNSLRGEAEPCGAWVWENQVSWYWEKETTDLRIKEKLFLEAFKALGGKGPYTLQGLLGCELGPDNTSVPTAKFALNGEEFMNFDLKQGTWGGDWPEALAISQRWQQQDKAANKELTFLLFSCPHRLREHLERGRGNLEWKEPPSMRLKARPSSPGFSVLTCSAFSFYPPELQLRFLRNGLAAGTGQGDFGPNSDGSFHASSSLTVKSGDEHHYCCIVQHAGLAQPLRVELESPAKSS
Sequence of human neonatal Fc receptor FcRn/β2m, soluble recombinant (human) (P61769 21-119 limits assumed, chain 2 of 2, further chain): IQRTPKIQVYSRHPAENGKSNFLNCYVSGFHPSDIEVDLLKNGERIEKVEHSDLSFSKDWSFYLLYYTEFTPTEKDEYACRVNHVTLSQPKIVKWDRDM

Consider “HSA [Q522E], membrane-tethered on CHO cells (from UniProt P02768 25-609)”, for which the figures for the mean geoMFI in assay [1] and in assay [2] were 128 and 29.2, respectively.

With “HSA [Q522S], membrane-tethered on CHO cells (from UniProt P02768 25-609)”, the mean geoMFI in assay [1] amounted to 258; in assay [2], 32.7.

As for “HSA [Q522N], membrane-tethered on CHO cells (from UniProt P02768 25-609)”, the mean geoMFI in assay [2] turned out to be 31.4.

“HSA [Q522A], membrane-tethered on CHO cells (from UniProt P02768 25-609)”: in assay [2], the mean geoMFI amounted to 17.8.

For the substance “HSA [Q522D], membrane-tethered on CHO cells (from UniProt P02768 25-609)”, the mean geoMFI in assay [1] amounted to 317; in assay [2] it was 22.4.

For “HSA [G572Q], membrane-tethered on CHO cells (from UniProt P02768 25-609)”, in assay [1], the mean geoMFI is 201.

As to “HSA [G572N], membrane-tethered on CHO cells (from UniProt P02768 25-609)”, the mean geoMFI in assay [1] was 85.8; in assay [2], 36.4.

On to “HSA [Q522R], membrane-tethered on CHO cells (from UniProt P02768 25-609)”, for which the mean geoMFI amounted to 386 in assay [1] and 17.8 in assay [2].

On to “HSA [Q522H], membrane-tethered on CHO cells (from UniProt P02768 25-609)”, for which, in assay [2], the mean geoMFI amounted to 27.2.

Take “HSA [G572V], membrane-tethered on CHO cells (from UniProt P02768 25-609)”: the mean geoMFI stood at 58.2 in assay [1] and 20.7 in assay [2].

In the case of “HSA [G572D], membrane-tethered on CHO cells (from UniProt P02768 25-609)”, the mean geoMFI in assay [1] stood at 305; in assay [2], 32.7.

Regarding “HSA [Q522T], membrane-tethered on CHO cells (from UniProt P02768 25-609)”, the mean geoMFI in assay [1] is 290; in assay [2], 28.3.

As for “HSA [Q522P], membrane-tethered on CHO cells (from UniProt P02768 25-609)”, the mean geoMFI in assay [2] came out at 29.4.

For the substance “HSA [G572P], membrane-tethered on CHO cells (from UniProt P02768 25-609)”, the mean geoMFI is 216 in assay [1] and 30.6 in assay [2].

The values above are taken from US20200325209A1.
